In US20060154859A1 (YISSUM RESEARCH DEVELOPMENT COMPANY OF THE HEBREW …, published 2006):
Residue numbers refer to the chain shown, from its start. In names and notes the source's numbering stands.

T1: long form of human leptin receptor (human, UniProt P48357 22-1165)
T1 construct: whole, on cells; The radioreceptor assay used a homogenate of the transfected BAF/3 cells; The proliferation assay used live BAF/3 1442-CI 4 cells; also called LEPR; OB-R
T1 sequence (looked up): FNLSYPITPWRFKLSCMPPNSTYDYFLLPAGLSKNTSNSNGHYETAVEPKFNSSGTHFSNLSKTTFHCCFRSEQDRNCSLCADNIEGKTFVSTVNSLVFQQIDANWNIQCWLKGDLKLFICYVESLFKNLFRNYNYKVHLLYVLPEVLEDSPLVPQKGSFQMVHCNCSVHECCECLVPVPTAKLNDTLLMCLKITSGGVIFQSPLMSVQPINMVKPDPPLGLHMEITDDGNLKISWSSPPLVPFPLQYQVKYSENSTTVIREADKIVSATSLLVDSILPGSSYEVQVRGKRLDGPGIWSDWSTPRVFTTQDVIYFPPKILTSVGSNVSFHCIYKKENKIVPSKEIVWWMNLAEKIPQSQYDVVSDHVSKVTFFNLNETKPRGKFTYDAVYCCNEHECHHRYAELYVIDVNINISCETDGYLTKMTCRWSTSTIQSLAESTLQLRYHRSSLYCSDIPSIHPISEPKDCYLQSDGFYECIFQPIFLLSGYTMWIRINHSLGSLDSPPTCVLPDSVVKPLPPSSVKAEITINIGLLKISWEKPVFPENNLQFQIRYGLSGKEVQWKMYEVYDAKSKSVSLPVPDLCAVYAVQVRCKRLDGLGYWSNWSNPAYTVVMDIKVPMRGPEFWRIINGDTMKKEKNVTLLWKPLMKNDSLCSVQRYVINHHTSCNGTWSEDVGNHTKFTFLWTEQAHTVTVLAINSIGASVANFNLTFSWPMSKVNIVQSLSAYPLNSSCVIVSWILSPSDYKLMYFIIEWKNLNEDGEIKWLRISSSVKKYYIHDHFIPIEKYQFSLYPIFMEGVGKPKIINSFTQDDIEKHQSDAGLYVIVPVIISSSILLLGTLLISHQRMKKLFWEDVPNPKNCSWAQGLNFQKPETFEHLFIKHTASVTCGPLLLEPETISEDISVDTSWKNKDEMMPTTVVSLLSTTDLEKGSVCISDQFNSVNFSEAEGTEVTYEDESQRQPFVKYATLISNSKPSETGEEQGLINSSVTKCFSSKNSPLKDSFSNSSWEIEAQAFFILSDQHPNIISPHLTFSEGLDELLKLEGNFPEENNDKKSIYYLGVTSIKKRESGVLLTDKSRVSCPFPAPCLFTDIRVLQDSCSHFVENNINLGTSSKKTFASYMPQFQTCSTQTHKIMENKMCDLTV

B1: human leptin L39A/D40A/F41A mutant (ligand)
chain: VPIQKVQDDTKTLIKTIVTRINDISHTQSVSSKQKVTGAAAIPGLHPILTLSKMDQTLAVYQQILTSMPSRNVIRISNDLENLRDLLHVLAFSKSCHLPWASGLETLDSLGGVLEASGYSTEVVALSRLQGSLQDMLWQLDLSPGC
notes: Expressed with an extra Met-Ala at the N-terminus, Met removed; also called L39A/D40A/F41A (human)
B2: human leptin L39A/D40A/F41A/I42A mutant (ligand)
chain: B1 chain with I42A
notes: Expressed with an extra Met-Ala at the N-terminus, Met removed; also called L39A/D40A/F41A/I42A (human)
B3: human leptin F41A/I42A mutant (ligand)
chain: B1 chain with A39L, A40D, I42A
notes: Expressed with an extra Met-Ala at the N-terminus, Met removed; also called F41A/I42A (human)
B4: human leptin L39A/D40A mutant (ligand)
chain: B1 chain with A41F
notes: also called L39A/D40A (human)
B5: ovine leptin L39A/D40A/F41A mutant (ligand)
chain: VSIRKVQDDTKTLIKTIVTRINDISHTQSVSSKQRVTGAAAIPGLHPLLSLSKMDQTLAIYQQILASLPSRNVIQISNDLENLRDLLHLLAASKSCPLPQVRALESLESLGVVLEASLYSTEVVALSRLQGSLQDMLRQLDLSPGC
notes: also called L39A/D40A/F41A (ovine)
B6: ovine leptin F41A/I42A mutant (ligand)
chain: B5 chain with A39L, A40D, I42A
notes: also called F41A/I42A (ovine)
B7: ovine leptin L39A/D40A mutant (ligand)
chain: B5 chain with A41F
notes: also called L39A/D40A (ovine)
B8: ovine leptin L39A/D40A/F41A/I42A mutant (ligand)
chain: B5 chain with I42A
notes: also called L39A/D40A/F41A/I42A (ovine)

The binders below were run against T1, long form of human leptin receptor (assay: radioreceptor competition assay against iodinated leptin, homogenate of BAF/3 cells with long form of human leptin receptor, average of two experiments).
Procedure: (vi) Binding assays. Radiolabeled ovine ¹²⁵I-leptin served as a ligand and all other nonlabeled leptins or their mutants as competitors. The experiments were conducted with homogenates of BAF/3 cells stably transfected with the long form of human leptin receptor. The cells were cultured in RPMI 1640 supplemented with 5% FCS in the -presence of IL-3 to minimize leptin receptors down-regulation till concentration of 10⁶ cells/ml was reached. Then the cells were spun and stored at −70° C. […] Each tube contained 150 μl of reaction buffer, 100 μl ¹²⁵I-human leptin (700,000-800,000 cpm) and 100 μl of different leptin solutions (providing 0-5000 ng/tube) in reaction buffer and the reaction was started by addition of 150 μl homogenate. The tubes were incubated for 18 h at room temperature. Then the leptin-receptor complex was precipitated by adding 250 μl of 1% (w/v) bovine immunoglobulin and 500 μl of 20% (w/v) polyethylene glycol. The tubes were thoroughly mixed, incubated for 30 min at 4° C., and centrifuged at 12,000 g for 15 min at 4° C. Then supernatant was carefully aspirated and the precipitates were counted in a γ counter. Human leptin was iodinated according to a protocol previously described for the iodination of hGH (Gertler et al., 1984).
Iodinated human leptin served as the ligand in all competitive experiments and the respective wild-type (WT) human and ovine leptins and their alanine mutants as competitors. Freshly prepared homogenate of BAF/3 cells stably transfected with the long form of human leptin receptor served as receptor source. Homogenate from 1.75×10⁶ cells was used per tube giving 6 to 7% specific binding.
With B1 the IC50 was 5.21 nM.
B2 was tested, and the IC50 was 5.43 nM.
Work on B3 yielded an IC50 of 6.82 nM.
For B4, the IC50 was 4.16 nM.
In the case of B5, the IC50 is reported as 2.2 nM.
Binder B6 has an IC50 of 3.44 nM.
Work on B7 yielded an IC50 of 1.83 nM.
For B8, the IC50 was 1.83 nM.

What follows are binders tested against T2, recombinant chicken leptin binding domain (chLBD) (chicken) (assay: SPR (Biacore 3000), leptin mutant amine-coupled to CM5 chip, soluble chLBD as analyte, 25 C, 1:1 Langmuir fit, mean of 2 experiments).
T2 construct: The 1:1 complex with leptin has a predicted mass of 40.5 kDa, so chLBD is about 24.5 kDa
Procedure: (v) Kinetic measurements of leptin and leptin mutants interaction with chLBD. All experiments were performed at 25° C. using surface plasmon resonance (SPR) methodology. The kinetics and equilibrium constants for the interactions between human and chicken recombinant LBD and chicken and hLep were determined using the Biacore 3000 system (Uppsala, Sweden). Leptin (human, ovine or chicken) was immobilized in a flow cell of a research-grade CM5 (carboxymethyldextran) sensor chip using amine-coupling chemistry (Johnsson et al., 1991). The immobilization steps were carried out at a flow rate of 5 μl/min in HBS-EB buffer. The surface was activated for 7 min with a mixture of 0.05 M N-hydroxysuccinimide and 0.2 M N-ethyl-N′(3-dimetylaminopropyl)-carbodiimide hydrochloride. Leptin was injected at a concentration of 50 μg/ml in 10 mM acetate, pH 3.5, until the desired level (1000 resonance units) was achieved. 1 M ethanolamine, pH 8.5, was injected for 7 min to block the remaining activated groups. A control surface was prepared by activating the carboxyl groups and then blocking the activated groups by ethanolamine as described. […] Regeneration of the surface after each interaction was performed by using 10-μl pulse of 10 mM glycine buffer, pH 2. The experiments were controlled by the kinetics Wizard of the Biacore control software, which corrects automatically for refractive index changes and non-specific binding by subtraction of the responses obtained for the control surface from the data obtained for the interactions between LBD and leptin. The obtained binding curves were fitted to the association and dissociation phases at all LBD concentrations simultaneously using Biacore evaluation software. In all cases, the best fit was obtained for a simple bimolecular interaction (Langmuir model).
To further characterize the binding capacities of chLBD with human or ovine leptins and their mutants the surface plasmon resonance (SPR) technique using respective leptin (or leptin mutant) immobilized on a sensor chip by amine coupling and binding of soluble chLBD was employed.
B1 was tested, and the Kd was 28.5 nM, the koff was 0.0102 s⁻¹ and the kon was 358000 M⁻¹ s⁻¹.
In the case of B2, the Kd is reported as 50.3 nM, the koff is reported as 0.0068 s⁻¹ and the kon is reported as 135000 M⁻¹ s⁻¹.
Work on B3 yielded a Kd of 31.8 nM, a koff of 0.0115 s⁻¹ and a kon of 362000 M⁻¹ s⁻¹.
With B4 the Kd was 22.9 nM, the koff was 0.0125 s⁻¹ and the kon was 545000 M⁻¹ s⁻¹.
Work on B5 yielded a Kd of 13.8 nM, a koff of 0.0025 s⁻¹ and a kon of 181000 M⁻¹ s⁻¹.
B6 was tested, and the Kd was 12.8 nM, the koff was 0.0032 s⁻¹ and the kon was 250000 M⁻¹ s⁻¹.
In the case of B7, the Kd is reported as 24 nM, the koff is reported as 0.0057 s⁻¹ and the kon is reported as 237000 M⁻¹ s⁻¹.
B8 gave a Kd of 29.3 nM, a koff of 0.0032 s⁻¹ and a kon of 109000 M⁻¹ s⁻¹.
